The values that follow come from US20230194547A1.

Sequence of human FcRn beta-2-microglobulin complex, biotinylated, coupled to streptavidin Sepharose (human) (P55899 24-297 limits assumed, chain 1 of 2): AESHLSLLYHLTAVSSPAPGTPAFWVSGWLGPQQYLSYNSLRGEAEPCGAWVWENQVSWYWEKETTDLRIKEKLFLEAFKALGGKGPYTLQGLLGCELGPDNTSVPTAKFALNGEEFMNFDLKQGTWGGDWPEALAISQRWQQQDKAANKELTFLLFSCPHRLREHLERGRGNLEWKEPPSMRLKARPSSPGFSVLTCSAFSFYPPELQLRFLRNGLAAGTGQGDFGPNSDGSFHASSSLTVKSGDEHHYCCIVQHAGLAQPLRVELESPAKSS
Sequence of human FcRn beta-2-microglobulin complex, biotinylated, coupled to streptavidin Sepharose (human) (P61769 21-119 limits assumed, chain 2 of 2, further chain): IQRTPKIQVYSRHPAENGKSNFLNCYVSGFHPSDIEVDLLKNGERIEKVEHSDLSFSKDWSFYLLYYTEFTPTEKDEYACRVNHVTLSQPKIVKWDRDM
Sequence of Avelumab, labelled with pHAb dye (antibody) (HC): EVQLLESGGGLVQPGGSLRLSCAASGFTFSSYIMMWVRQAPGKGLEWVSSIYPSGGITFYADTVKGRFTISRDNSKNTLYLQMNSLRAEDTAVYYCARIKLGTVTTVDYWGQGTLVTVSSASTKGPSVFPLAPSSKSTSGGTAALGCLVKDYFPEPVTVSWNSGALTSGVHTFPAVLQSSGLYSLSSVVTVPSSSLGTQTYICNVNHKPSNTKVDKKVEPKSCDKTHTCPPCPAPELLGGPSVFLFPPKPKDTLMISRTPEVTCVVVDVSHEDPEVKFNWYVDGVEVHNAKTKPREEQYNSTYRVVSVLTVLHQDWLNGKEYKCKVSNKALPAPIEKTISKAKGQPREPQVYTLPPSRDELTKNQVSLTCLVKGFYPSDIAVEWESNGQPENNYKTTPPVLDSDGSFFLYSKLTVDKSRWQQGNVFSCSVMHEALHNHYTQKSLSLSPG
Sequence of Avelumab, labelled with pHAb dye (antibody) (LC): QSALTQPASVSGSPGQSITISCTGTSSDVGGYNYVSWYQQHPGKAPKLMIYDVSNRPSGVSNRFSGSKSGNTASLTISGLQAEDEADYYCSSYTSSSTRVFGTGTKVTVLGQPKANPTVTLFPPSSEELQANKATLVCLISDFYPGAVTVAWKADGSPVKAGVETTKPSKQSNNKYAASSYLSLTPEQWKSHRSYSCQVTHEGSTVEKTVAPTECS
Sequence of Ixekizumab, labelled with pHAb dye (antibody) (HC): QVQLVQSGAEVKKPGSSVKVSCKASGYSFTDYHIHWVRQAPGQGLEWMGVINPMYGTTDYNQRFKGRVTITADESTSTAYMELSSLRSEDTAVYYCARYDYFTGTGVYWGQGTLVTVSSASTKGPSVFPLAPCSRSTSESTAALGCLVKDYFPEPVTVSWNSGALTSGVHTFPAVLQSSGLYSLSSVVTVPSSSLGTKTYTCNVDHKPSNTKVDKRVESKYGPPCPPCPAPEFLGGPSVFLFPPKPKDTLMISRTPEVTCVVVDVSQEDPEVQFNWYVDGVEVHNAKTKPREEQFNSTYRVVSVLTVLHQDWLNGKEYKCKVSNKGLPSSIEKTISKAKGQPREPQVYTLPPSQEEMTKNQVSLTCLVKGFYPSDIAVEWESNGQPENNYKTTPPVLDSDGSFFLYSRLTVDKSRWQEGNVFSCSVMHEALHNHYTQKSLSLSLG
Sequence of Ixekizumab, labelled with pHAb dye (antibody) (LC): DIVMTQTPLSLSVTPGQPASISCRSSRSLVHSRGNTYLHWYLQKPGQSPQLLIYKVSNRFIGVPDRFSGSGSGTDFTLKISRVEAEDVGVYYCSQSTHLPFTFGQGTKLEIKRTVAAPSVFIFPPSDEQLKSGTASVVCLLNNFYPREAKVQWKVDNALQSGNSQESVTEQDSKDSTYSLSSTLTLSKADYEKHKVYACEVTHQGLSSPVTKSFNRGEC
Sequence of Ustekinumab (antibody) (HC): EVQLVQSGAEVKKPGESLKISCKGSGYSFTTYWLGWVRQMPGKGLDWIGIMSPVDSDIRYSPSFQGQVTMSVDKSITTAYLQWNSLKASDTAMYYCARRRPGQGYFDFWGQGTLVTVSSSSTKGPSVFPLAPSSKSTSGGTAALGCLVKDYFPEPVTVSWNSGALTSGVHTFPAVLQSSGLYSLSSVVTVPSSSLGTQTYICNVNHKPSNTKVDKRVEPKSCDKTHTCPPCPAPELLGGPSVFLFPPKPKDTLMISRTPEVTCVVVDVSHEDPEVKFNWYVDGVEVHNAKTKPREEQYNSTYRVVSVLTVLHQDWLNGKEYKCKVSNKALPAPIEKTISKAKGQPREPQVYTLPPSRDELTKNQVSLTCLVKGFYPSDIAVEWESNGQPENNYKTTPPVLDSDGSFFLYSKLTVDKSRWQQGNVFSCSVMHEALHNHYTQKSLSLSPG
Sequence of Ustekinumab (antibody) (LC): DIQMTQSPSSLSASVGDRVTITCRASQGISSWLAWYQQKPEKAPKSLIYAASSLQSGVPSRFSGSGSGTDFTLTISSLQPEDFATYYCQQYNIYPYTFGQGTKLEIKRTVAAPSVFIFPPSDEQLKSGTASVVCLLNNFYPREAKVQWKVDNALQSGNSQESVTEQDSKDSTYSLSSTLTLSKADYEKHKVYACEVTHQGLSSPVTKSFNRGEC

The first assay has as its target human FcRn beta-2-microglobulin complex, biotinylated, coupled to streptavidin Sepharose (human) (UniProt P55899). Put plainly: FcRn affinity chromatography, pH gradient 5.5 to 8.8; dye-labelled antibody.
“Adalimumab, labelled with pHAb dye (antibody)” returned a relative retention time on FcRn affinity column (relative to anti-Her3 antibody standard) of 0.84.

For the substance “Avelumab, labelled with pHAb dye (antibody)”, the relative retention time on FcRn affinity column (relative to anti-Her3 antibody standard) amounted to 1.25. Same read-out and setting: as for “Ixekizumab, labelled with pHAb dye (antibody)”, the figure is 1.33; as for “Motavizumab WT, labelled with pHAb dye (antibody)”, 0.42; as for “Motavizumab-YTE, labelled with pHAb dye (antibody)”, 4.88. “Nivolumab, labelled with pHAb dye (antibody)” had a relative retention time on FcRn affinity column (relative to anti-Her3 antibody standard) of 0.39. The substance “Ofatumumab, labelled with pHAb dye (antibody)” showed a relative retention time on FcRn affinity column (relative to anti-Her3 antibody standard) of 0.67. The same measure, in the same setting: in the case of “Palivizumab, labelled with pHAb dye (antibody)” it was 0.28. Still for that read-out and setting: in the case of “Reslizumab, labelled with pHAb dye (antibody)” it was 0.41; in that of “Ustekinumab, labelled with pHAb dye (antibody)”, 0.41.

The next assay has the same target. Briefly: FcRn affinity chromatography, pH gradient 5.5 to 8.8; unlabelled antibody.
Take Adalimumab (antibody): the relative retention time on FcRn affinity column (relative to anti-Her3 antibody standard) was found to be 0.93. Turning to Avelumab (antibody), the relative retention time on FcRn affinity column (relative to anti-Her3 antibody standard) came to 1.27. Substance Motavizumab WT (antibody) had a relative retention time on FcRn affinity column (relative to anti-Her3 antibody standard) of 0.5. On to Motavizumab-YTE (antibody), for which the relative retention time on FcRn affinity column (relative to anti-Her3 antibody standard) came to 4.52. Nivolumab (antibody) yielded a relative retention time on FcRn affinity column (relative to anti-Her3 antibody standard) of 0.49.

For Ofatumumab (antibody), the relative retention time on FcRn affinity column (relative to anti-Her3 antibody standard) came out at 0.72. Substance Palivizumab (antibody) yielded a relative retention time on FcRn affinity column (relative to anti-Her3 antibody standard) of 0.31. Consider Reslizumab (antibody), for which the relative retention time on FcRn affinity column (relative to anti-Her3 antibody standard) was 0.5. Substance Ustekinumab (antibody) came in with a relative retention time on FcRn affinity column (relative to anti-Her3 antibody standard) of 0.48.
